Legend:
[1] = target: T1, KOD DNA polymerase, purified (pET22b-KOD) (UniProt D0VWU9 1-774); assay: EMSA; 2 nM DNA, no Mg2+; 10 mM Tris-HCl pH 7.9, 50 mM KCl, 1 mM EDTA, 5% glycerol, 1 mM DTT, 25 ug/ml BSA; no MgCl2, no poly(dI-dC); 20 min at room temperature; 6% PAGE in 0.5X TBE; conditions: protein: recombinant; tags: His; label: 5' biotin
T1 sequence: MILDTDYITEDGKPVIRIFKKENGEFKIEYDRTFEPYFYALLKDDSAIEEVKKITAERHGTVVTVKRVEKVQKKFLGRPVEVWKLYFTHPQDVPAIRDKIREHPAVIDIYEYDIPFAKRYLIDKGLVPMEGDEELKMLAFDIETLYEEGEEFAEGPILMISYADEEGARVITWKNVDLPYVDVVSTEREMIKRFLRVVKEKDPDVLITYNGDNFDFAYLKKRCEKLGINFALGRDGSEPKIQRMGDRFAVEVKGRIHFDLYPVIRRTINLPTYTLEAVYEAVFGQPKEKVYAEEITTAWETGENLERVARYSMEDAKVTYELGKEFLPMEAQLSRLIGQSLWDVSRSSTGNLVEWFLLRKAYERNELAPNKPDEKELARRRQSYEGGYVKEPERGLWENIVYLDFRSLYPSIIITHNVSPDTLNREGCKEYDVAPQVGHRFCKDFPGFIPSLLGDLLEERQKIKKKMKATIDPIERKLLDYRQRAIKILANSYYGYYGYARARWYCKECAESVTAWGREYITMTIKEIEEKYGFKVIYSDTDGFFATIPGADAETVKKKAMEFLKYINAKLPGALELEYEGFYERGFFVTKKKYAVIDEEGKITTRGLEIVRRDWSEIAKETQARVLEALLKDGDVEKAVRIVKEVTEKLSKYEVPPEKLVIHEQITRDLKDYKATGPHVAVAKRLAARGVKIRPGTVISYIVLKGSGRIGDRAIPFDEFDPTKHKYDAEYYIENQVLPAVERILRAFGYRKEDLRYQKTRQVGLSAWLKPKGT

[2] = target: Taq DNA polymerase (Fig. 4A) (UniProt P19821 1-832); assay: EMSA; no Mg2+; 10 mM Tris-HCl pH 7.9, 50 mM KCl, 1 mM EDTA, 5% glycerol, 1 mM DTT, 25 ug/ml BSA; no MgCl2, no poly(dI-dC); 20 min at room temperature; 6% PAGE in 0.5X TBE; conditions: protein: commercial; label: 5' biotin
Sequence of Taq DNA polymerase (Fig. 4A) (P19821 whole entry): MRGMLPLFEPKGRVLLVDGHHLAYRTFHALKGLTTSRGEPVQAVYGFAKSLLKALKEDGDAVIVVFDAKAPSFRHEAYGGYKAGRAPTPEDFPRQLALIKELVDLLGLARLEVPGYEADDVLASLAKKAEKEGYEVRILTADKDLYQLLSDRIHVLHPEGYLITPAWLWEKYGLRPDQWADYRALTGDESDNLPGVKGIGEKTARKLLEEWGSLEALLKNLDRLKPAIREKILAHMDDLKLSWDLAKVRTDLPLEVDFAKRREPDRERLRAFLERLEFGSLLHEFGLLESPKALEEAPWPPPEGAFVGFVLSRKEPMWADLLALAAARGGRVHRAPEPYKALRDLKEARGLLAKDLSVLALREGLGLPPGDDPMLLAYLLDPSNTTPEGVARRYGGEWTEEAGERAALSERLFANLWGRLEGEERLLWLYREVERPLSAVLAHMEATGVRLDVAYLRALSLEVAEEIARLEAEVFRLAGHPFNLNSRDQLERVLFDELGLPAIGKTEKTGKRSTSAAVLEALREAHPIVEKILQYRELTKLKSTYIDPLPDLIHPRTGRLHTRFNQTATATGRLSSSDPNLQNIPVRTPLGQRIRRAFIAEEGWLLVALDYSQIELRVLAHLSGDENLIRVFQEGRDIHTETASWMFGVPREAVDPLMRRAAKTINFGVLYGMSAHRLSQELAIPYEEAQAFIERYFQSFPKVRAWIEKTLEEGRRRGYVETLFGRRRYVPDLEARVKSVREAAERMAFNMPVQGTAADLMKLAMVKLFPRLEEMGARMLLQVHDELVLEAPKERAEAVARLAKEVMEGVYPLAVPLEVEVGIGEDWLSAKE

TACCGAGCTCTTACGCGTGCCTCTGACTTGCCTCAGAGC (ssDNA) [Bio-Olig2.5]
Kd [1]: ~40 nM
binding result [2]: no binding
